{"source": "patent US20250090677A1", "about": "“ANTI-CDH6 ANTIBODIES AND ANTIBODY-DRUG CONJUGATES THEREOF” (MULTITUDE THERAPEUTICS INC., priority 2021, published 2025)", "key": {"[1]": {"target": "T1, recombinant protein CDH6 (Homo sapiens, UniProt P55285)", "T1 construct": "CDH6 extracellular region (Ser 54-Ala 615) was used as an immunogen; purchased ACRO Biosystems CA6-H5229", "T1 sequence (P55285 54-615)": "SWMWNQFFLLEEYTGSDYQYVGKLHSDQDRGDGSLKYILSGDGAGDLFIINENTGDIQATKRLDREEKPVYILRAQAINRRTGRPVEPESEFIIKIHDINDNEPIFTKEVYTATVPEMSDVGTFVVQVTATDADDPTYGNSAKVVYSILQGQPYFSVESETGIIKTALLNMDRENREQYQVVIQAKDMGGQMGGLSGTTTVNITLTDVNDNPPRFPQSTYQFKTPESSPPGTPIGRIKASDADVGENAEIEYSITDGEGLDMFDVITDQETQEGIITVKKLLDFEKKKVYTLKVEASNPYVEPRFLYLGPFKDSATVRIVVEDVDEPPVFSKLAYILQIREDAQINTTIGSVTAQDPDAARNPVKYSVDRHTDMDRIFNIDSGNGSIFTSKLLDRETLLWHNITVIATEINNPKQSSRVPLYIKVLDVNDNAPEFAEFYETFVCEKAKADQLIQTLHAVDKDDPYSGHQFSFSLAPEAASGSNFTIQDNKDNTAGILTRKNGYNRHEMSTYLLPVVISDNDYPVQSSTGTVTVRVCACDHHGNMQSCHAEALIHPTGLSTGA", "experiment": "ELISA binding activity of mouse monoclonal antibodies to CDH6 recombinant protein", "settings": "CDH6 coated 1 μg/mL, FIG. 23", "method": "The recombinant protein CDH6 was coated on ELISA plates at 1 μg/mL overnight at 4° C.; after being washed with PBST, the plate was added with 10% fetal bovine serum, and the mixture was blocked at 37° C. for 1 h; the plate was added with 13 monoclonal antibodies of CDH6 with different dilutions (0.1 ng/mL to 100 ng/mL), and the mixture was reacted at 37° C. for 1 h; after being washed with PBST, the plate was added with horseradish peroxidase-labeled goat anti-human IgG secondary antibody (Goat anti Mouse (HRP), Thermo Fisher Scientific), and the mixture was reacted at 37° C. for 30 min; after the plate was repeatedly washed with PBST 5 times, the remaining droplets on the absorbent paper were patted as much as possible; each well of the plate was added with 100 μL of TMB (eBioscience) and placed in the dark at room temperature (20±5° C.) for 1.5 min; each well of the plate was added with 100 μL of 2 N H2SO4 stop buffer for stopping substrate reaction, OD values at 450 nm were read using a microplate reader, and the binding ability of the antibody to the target antigen CDH6 was analyzed. As shown in Table 1 and FIG. 23, the sensitivity of the anti-CDH6 antibody and CDH6 recombinant protein of the present application was not more than 12.5 ng/mL, wherein #13 (CL069463 antibody) was not more than 3.125 ng/mL, #23 (CL069707 antibody) was not more than 1.56 ng/mL, #4 (CL069066 antibody) was not more than 6.3 ng/mL, and #16 (CL069439 antibody) was not more than 1.0 ng/mL."}, "[2]": {"experiment": "Hydrophilicity of antibody-drug conjugate by HIC-HPLC (common procedure H)", "format": "physicochemical", "settings": "shorter retention time = better hydrophilicity", "excerpt": "The Hydrophilicity of the antibody-drug conjugate can be determined by hydrophobic interaction chromatography (HIC) in high-performance liquid chromatography (HPLC) analysis using the following method. • HPLC system: Agilent 1260 Infinity II HPLC system (Agilent Technologies, Inc.) • Detector: Ultraviolet absorption spectrometer (measurement wavelength: 280 nm) • HIC-Column: TOSOH TSKgel Butyl-NPR (4.6 mm I.D.×3.5 cm, 2.5 μm) • Mobile phase A: 1.5 mol/L (NH4)2SO4, 50 mmol/L KHPO4, pH7.0 • Mobile phase B: 50 mmol/L KHPO4, 25% (v/v) isopropanol, pH7.0 • Isocratic Operation: 25 min • Column temperature: room temperature • Gradient program (B %): 0%-25% (0 min-1 min), 25% (1 min-3 min), 25%-80% (3 min-13 min), 80% (13 min-17 min), 80%-0% (17 min-17.10 min), 0% (17.10 min-25 min) • Sample injection: 10 μL\nIt is confirmed that the shorter the retention time, the better of the sample's hydrophilicity"}, "[3]": {"experiment": "Aggregation of antibody-drug conjugate by SEC-HPLC (common procedure G)", "format": "physicochemical", "excerpt": "The aggregation in the antibody-drug conjugate can be determined by size exclusion chromatography (SEC) in high-performance liquid chromatography (HPLC) analysis using the following method. • HPLC system: Agilent 1260 Infinity II HPLC system (Agilent Technologies, Inc.) • Detector: Ultraviolet absorption spectrometer (measurement wavelength: 280 nm) • SEC-Column: TOSOH TSKgel G3000SWXL (7.8×300 mm, 5 μm) • Mobile phase: 200 mmol/L KHPO4, 150 mmol/L NaCl, 15% (v/v) isopropanol, pH7.0 • Flow rate: 0.75 mL/min • Isocratic Operation: 18 min • Column temperature: room temperature • Sample injection: 50 μg\nThe SEC chromatogram of quality control (QC, CL069707-H1L1) was shown in FIG. 5A, it is confirmed that the molecular weight of the main QC product is about 150 kDa and the monomer retention time is around 9.5-10.5 min. Meanwhile, the retention time of aggregation is earlier than that of monomer."}, "[4]": {"tested_on": "Renal Carcinoma Patient-Derived Xenograft (PDX)", "experiment": "In vivo antitumor effect in renal carcinoma patient-derived xenograft (PDX) model", "design": "species or system mice", "settings": "10 mg/kg intravenous, compared with IgG-LP1 or IgG-GGFG-DXd, FIG. 21A", "method": "6-8 weeks Nu/Nu mice were purchased from Zhejiang Charles River Co., Ltd. The tumors were sliced into 3 mm×3 mm×3 mm (about 50-90 mg) fragments and implanted subcutaneously into the right flank of mice. Then the animals were checked daily for tumor growth and body weight. The mice were randomized into 5 groups when mean tumor volume reaches ˜150 mm^3. The grouping day was regarded as day 0. Mice were then injected intravenous with 10 mg/kg of one of the following substances:10 mg/kg IgG-LP1, CL069707-H1L1-LP1, IgG-GGFG-DXd, Reference ADC and Reference Antibody-LP1. Tumor volumes were measured two times per week from day of treatment initiation by Caliper and calculated as follows: […]."}, "[5]": {"tested_on": "HepG2 cells (human hepatoma cells)", "experiment": "Flow cytometry, HepG2 negative cells", "format": "binding", "settings": "antibody diluted to 20 μg/mL, FCM", "method": "(§1) The binding of 13 CDH6 monoclonal antibodies to CDH6 on the cell surface was analyzed by Flow cytometry (FCM) using OVCAR-3 cells (human ovarian cancer cells) as positive cells and HepG2 cells (human hepatoma cells) as negative cells. Cells in the logarithmic growth phase were collected, adjusted to a cell density of 5×10^6 cells/mL, and pre-cooled on ice. 13 CDH6 monoclonal antibodies were diluted to 20 μg/mL in 2% FBS-containing pre-cooled saline. 100 μL of cells were taken and added with an equal volume of the diluted CDH6 monoclonal antibodies described above, and the mixture was reacted at 4° C. for 30 min in the dark. After the reaction was completed, the cells were washed twice with […] pre-cooled saline (6000 rpm, 45 s). The secondary antibody PE anti-mouse IgG (BD Pharmingen) was diluted at 1:500 with 2% FBS-containing pre-cooled saline, and each of the washed cells were resuspended with 100 μL of diluted secondary antibody and reacted for 30 min at 4° C. in the dark. After the reaction was completed, the cells were washed twice with 2% FBS-containing pre-cooled saline (6000 rpm, 45 s). The cells were resuspended in 400 μL of saline. The flow cytometer (BD Calibur) was used to analyze the binding ability of antibodies to cell surface antigens."}, "[6]": {"tested_on": "OVCAR-3 cells (human ovarian cancer cells)", "experiment": "Flow cytometry recognition of cell-surface CDH6, OVCAR-3 positive cells", "format": "binding", "settings": "antibody diluted to 20 μg/mL, FCM, FIG. 24", "method": "as §1"}}}
{"molecule": "CL069066: mouse anti-CDH6 monoclonal antibody; VH SEQ ID NO: 95, VL SEQ ID NO: 96 (antibody, V domains shown, CL069066 VH; Ch069066 VH; CL069066 VL; Ch069066 VL) VH: EVKLLESGGGLVQPGGSLKLSCAASGFDFSRYWMTWVRQAPGKGLEWIGEINPDSSTINYTPSLKDKFIISRDNAKNTLYLQMNKVTSEDTALYYCTRRPHYYGYFDSWGQGTTLTVSS VL: DIVLTQSPASLAVSLGQRATISCRASESVEYYGTTLMQWYQQKPGQPPQLLIYAGSNVESGVPARFSGSGSGTEFSLNIHPVEEDDIGMYFCQQSRKVPWTFGGGTKLEIK", "values": [{"measurement": "sensitivity of the anti-CDH6 antibody and CDH6 recombinant protein (ELISA)", "setting": "[1]", "result": "not more than 6.3 ng/mL"}]}
{"molecule": "DS-6000a (conjugate, chains of the INN, looked up, deruxtecan payload) VH: EVQLVQSGAEVKKPGASVKVSCKASGYTFTRNFMHWVRQAPGQGLEWMGWIYPGDGETEYAQKFQGRVTITADTSTSTAYMELSSLRSEDTAVYYCARGVYGGFAGGYFDFWGQGTLVTVSS VL: DIQMTQSPSSLSASVGDRVTITCKASQNIYKNLAWYQQKPGKAPKLLIYDANTLQTGVPSRFSGSGSGSDFTLTISSLQPEDFATYFCQQYYSGWAFGQGTKVEIK", "values": [{"measurement": "retention time of the antibody-drug conjugate measured by common procedure H", "setting": "[2]", "result": 7.672, "unit": "min"}, {"measurement": "aggregation of the antibody-drug conjugate measured by common procedure G", "setting": "[3]", "result": 2.68, "unit": "%"}, {"measurement": "tumor volume / tumor growth inhibition", "setting": "[4]", "result": "no tumor growth inhibition activity"}]}
{"molecule": "CL069463: mouse anti-CDH6 monoclonal antibody; VH SEQ ID NO: 41, VL SEQ ID NO: 46 (antibody, V domains shown, CL069463 VH; Ch069463 VH; CL069463 VL; Ch069463 VL) VH: EVQLVESGGGLVQPKGSLKLSCAASGFTFNTYALTWVRQAPGKGLEWVGRIKSKNKDYETYYADSVKDRFTISRNDSQSLLYLQMNNLKTEDTAIYYCVRQNWNYFDYWGQGTTLTVSS VL: DIQMTQSPASLAASVGETVTITCRASENIYYSLAWYQQRQGKSPQLLIYNANSLKDGVPSRFSGSGSGTQYSMKINSMQPEDTATYFCQQAYDVPPTFGGGTKLEIK", "values": [{"measurement": "binding to negative cells HepG2", "setting": "[5]", "result": "no binding was observed"}, {"measurement": "sensitivity of the anti-CDH6 antibody and CDH6 recombinant protein (ELISA)", "setting": "[1]", "result": "not more than 3.125 ng/mL"}, {"measurement": "specific recognition of OVCAR-3 cells (positive cells)", "setting": "[6]", "result": "capable of specifically recognizing"}]}
{"molecule": "CL069707: mouse anti-CDH6 monoclonal antibody; VH SEQ ID NO: 18, VL SEQ ID NO: 23 (antibody, V domains shown, CL069707 VH; Ch069707 VH; CL069707 VL; Ch069707 VL) VH: EVHLVESGGGLVQPKGSLKLSCVASGFTFTTYAMNWVRQAPGKGLEWVARIRIKNNNYATYYADSVTDRFTISRDDSQSMLYLQMNNLKTEDTAMYYCVRPDYGNYGLAYWGQGTLVTVSA VL: EIVLTQSPTTMAASPGEKITITCSASSSISSHYLHWYQQKPGFSPKLLIYRSFYLASGVPLRFTGSGSGTSYSLTIGTMEAEDVATYYCQQDIVPLTFGAGTKLELK", "values": [{"measurement": "binding to negative cells HepG2", "setting": "[5]", "result": "no binding was observed"}, {"measurement": "sensitivity of the anti-CDH6 antibody and CDH6 recombinant protein (ELISA)", "setting": "[1]", "result": "not more than 1.56 ng/mL"}, {"measurement": "specific recognition of OVCAR-3 cells (positive cells)", "setting": "[6]", "result": "capable of specifically recognizing"}]}
{"molecule": "CL069439: mouse anti-CDH6 monoclonal antibody; VH SEQ ID NO: 103, VL SEQ ID NO: 104 (antibody, V domains shown, CL069439 VH; Ch069439 VH; CL069439 VL; Ch069439 VL) VH: EVQLQQSGTELVRTGASVKISCKASGYSFTGYYIHWIKQSHGESLEWIGYISCFNGDTSYNQNFKDRATFNVDTSSSTAYMQFISLTSEDSAVYYCVRGRYGNFNYFDYWGQGTTLTVSS VL: DIVLTQSPASLAVSLGQRATISCRASESVEFYGTSLMQWFQQKPGHPPQLLIYATSNVDSGVPARFSASGSGTDFSLNIHPVEEADIAMYFCQQSRRIPWTFGGGTKLEIK", "values": [{"measurement": "sensitivity of the anti-CDH6 antibody and CDH6 recombinant protein (ELISA)", "setting": "[1]", "result": "not more than 1.0 ng/mL"}]}
